# In US11021532:
# Where a chain is given by its changes, count along the chain named.
# B1: COVID19_P23_F10 (scFv, V domains shown)
# VH: QVQLVQSGAEVKKPGASVKVSCKASGDTFSNYGISWVRQAPGQGLEWMGWMNPNSGGTNYAQKFQGRVTMTRDTSTSTVYMELSSLRSEDTAVYYCAIGTTVVTPFGYWGQGTLVNVSS
# VL: EIVMTQSPATLSVSPGERATLSCRASESVSSRYLAWYQQKPGQAPRLLIYGASTRATGIPARFSGSGSGTEFTLTISSLQSEDFAVYYCQQGYKNPPTFGQGTKVEIKR
# B2: COVID19_P24_F11 (scFv, V domains shown)
# VH: EVQLLESGGGLVQPGGSLRLSCAASGFTFSGSAMHWVRQAPGKGLEYVSAISRNGGTTYYADSVKGRFTISRDNSKNTLYLQMNSLRAEDTAVYYCAKDGTLITTTLDYWGQGTLVTVSS
# VL: DIQMTQSPSSLSASVGDRVTITCRASQSIGYYLNWYQQKPGKAPKLLIYAASSLQSGVPSRFSGSGSGTDFTLTISSLQPEDFATYYCQQSYTTPLTFGGGTKVEIKR
# B3: COVID19_P24_H04 (scFv, V domains shown)
# VH: QVQLVQSGAEVKKPGASVKVSCKASGYTFTDYHMHWVRQAPGQGLEWMGWMNPNSGNTSYAQKFQGRVTMTRDTSTSTVYMELSSLRSEDTAVYYCAGMGMGRDGYNSRAFDIWGQGTMVTVSS
# VL: B2 VL with G30S, Y31T, S53T, T93S, T94M, G100Q
# B4: COVID19_P11_H02 (scFv, V domains shown)
# VH: QVQLVQSGAEVKKPGASVKVSCKASGGTFTSYHMHWVRQAPGQGLEWMGWMNPNSGNTGYALKFQGRVTMTRDTSTSTVYMELSSLRSEDTAVYYCASFERFGELVPETFDYWGQGTLVTVSS
# VL: B2 VL with S28G, G30R, Y31N, Y32D, N34A, T93S, L96P, G100Q, V104L
# B5: COVID19_P11_D12 (scFv, V domains shown)
# VH: QVQLVQSGAEVKKPGASVKVSCKASGYTFTENEMHWVRQAPGQGLEWMGIINPSGGSTSYAQKFQGRVTMTRDTSTSTVYMELSSLRSEDTAVYYCAKTRYGGNSRSRYYYYGMDVWGQGTTVTVSS
# VL: B2 VL with S28H, G30S, Y31S, S53A, S91G, T93G, L96Y, G100Q
# B6: COVID19_P24_A11 (scFv, V domains shown)
# VH: QVQLVQSGAEVKKPGASVKVSCKASGYTFTENEMHWVRQAPGQGLEWMGIINPSGGSTSYAQKFQGRVTMTRDTSTSTVYMELSSLRSEDTAVYYCARDLMDIVVVPWLGGMDVWGQGTTVTVSS
# VL: B2 VL with S28A, G30T, Y31N, N34A, S91Y, T93S, T94Y, L96P, G100Q, V104L
# B7: COVID19_P11_G03 (scFv, V domains shown)
# VH: QVQLVQSGAEVKKPGASVKVSCKASGYTFTSYEINWVRQAPGQGLEWMGIINPSDGSSTYAQKFQGRVTMTRDTSTSTVYMELSSLRSEDTAVYYCARDRGYSYDHDQIYYYYGMDVWGQGTTVTVSS
# VL: B2 VL with A25V, S28G, G30S, Y31S, S53I, S91G, T93S, L96F, G100P, E105D
# B8: COVID19_P23_G10 (scFv, V domains shown)
# VH: QVQLVQSGAEVKKPGSSVKVSCKASGYTFTDYYIQWVRQAPGQGLEWMGWINPNSGGPNYAQKFQGRVTITADESTSTAYMELSSLRSEDTAVYYCARVDYGDYGRLEDYWGQGTLVTVSS
# VL: DIQMTQSPSSLSASVGDRVTITCRASQSIYSWLAWYQQKPGKAPKLLIYDASSLESGVPSRFSGSGSGTDFTLTISSLQPEDFATYYCQQLNSYPYTFGQGTKVEIKR
# B9: COVID19_P24_G09 (scFv, V domains shown)
# VH: QVQLVQSGAEVKKPGASVKVSCKASGYTFTRYYIHWVRQAPGQGLEWMGIINPSGGSTTYAQKFQGRVTMTRDTSTSTVYMELSSLRSEDTAVYYCAKGAPHDYIWGSYRPDAFDIWGQGTMVTVSS
# VL: B8 VL with Q27E, S28N, Y30D, D50E, S53T, Q89H, L91Y, N92L, Y94S, Y96E
# B10: COVID19_P24_A09 (scFv, V domains shown)
# VH: QVQLVQSGAEVKKPGASVKVSCKASGYTFTDYYMQWVRQAPGQGLEWMGWIDPHSGATNYAHSFQGRVTMTRDTSTSTVYMELSSLRSEDTAVYYCARLEGGSYWTGYFDLWGRGTLVTVSS
# VL: EIVMTQSPATLSVSPGERATLSCRASQSVSSNYLAWYQQKPGQAPRLLIYAVSSRATGIPARFSGSGSGTEFTLTISSLQSEDFAVYYCQQYGSSPLTFGGGTKVEIKR
# B11: COVID19_P24_C06 (scFv, V domains shown)
# VH: QVQLVQSGAEVKKPGASVKVSCKASGYIFTSYPIHWVRQAPGQGLEWMGWMNPNSGNTGYAQKFQGRVTMTRDTSTSTVYMELSSLRSEDTAVYYCARDRGSYDTDAFDIWGQGTMVTVSS
# VL: DIQMTQSPSSLSASVGDRVTITCRASQDISNYLNWYQQKPGKAPKLLIYAASNLQSGVPSRFSGSGSGTDFTLTISSLQPEDFATYYCQQANSFPSTFGQGTKLEIKR
# B12: COVID19_P11_H07 (scFv, V domains shown)
# VH: QVQLVQSGAEVKKPGASVKVSCKASGYTFTSYDINWVRQAPGQGLEWMGWMNSNSGSTGYAQKFQGRVTMTRDTSTSTVYMELSSLRSEDTAVYYCARGWMAYDAFDIWGQGTMVTVSS
# VL: B11 VL with R24Q, D28S, S30Y, A50D, Q55E, S56T, N92I, S96L, Q100G, L104V
# B13: COVID19_P24_B09 (scFv, V domains shown)
# VH: QVQLVQSGAEVKKPGSSVYVSCKASGYTFTSYGISWVRQAPGQGLEWMGGIIPMFGTTNYAQKFQGRVTITADKSTSTAYMELSSLRSEDTAVYYCARDRGDTIDYWGQGTLVTVSS
# VL: B11 VL with D28G, Y32N, N53S, Q55E, A91G, S93G, S96L, Q100P, L104V, E105D
# B14: COVID19_P24_C10 (scFv, V domains shown)
# VH: B5 VH with K98R, T99D, R100S, Y101G, G102V, G103D, N104T, S105A, R106T, S107L
# VL: DIQMTQSPSSLSASVGDRVTITCQASQDISKYLNWYQQKPGKAPKLLIYGASTLSDGVPSRFSGSGSGTDFTLTISSLQPEDFATYYCQQGYSTPYSFGQGTKLEIKR
# B15: COVID19_P11_D08 (scFv, V domains shown)
# VH: B5 VH with K98R, T99D, R100S, Y101G, G102V, G103D, N104T, S105A, R106T, S107L
# VL: B14 VL
# B16: COVID19_P24_H06 (scFv, V domains shown)
# VH: EVQLLESGGGLVQPGGSLRLSCAASGFSFSNYDMHWVRQAPGKGLEWVAVISYDGGFKLYADSVKGRFTISRDNAKNSLYLRMNSLRSEDTAVYYCARGQVRGSGPQVVVMDVWGKGTTVTVSS
# VL: DIQMTQSPSSLSASVGDRVTITCQASQGIRNDLGWYQQKPGKAPKLLIYDASRLQSGVPSRFSGSGSGTDFTLTISSLQPEDFATYYCQQYYSTPPLTFGQGTKVEIKR
# B17: COVID19_P24_D09 (scFv, V domains shown)
# VH: QVQLVQSGAEVKKPGASVKVSCKASGGTFSSYAISWVRQAPGQGLEWMGIVNPSSGSTTYAQKFQGRVTMTRDTSTSTVYMELSSLRSEDTAVYYCARVRGSAAIAMMDVWGQGTTVTVSS
# VL: B16 VL with Q24R, G28D, D32E, D50A, R53S, Y91S, L97W, V105L
# Target: SARS-CoV-2 Receptor Binding Domain (RBD) protein (SARS-CoV-2)
# Test: SPR (Carterra LSA), scFv captured via anti-V5, RBD as analyte, 1:1 fit
Binder,Kd,koff,kon
B1,7.86 nM,0.00077 s⁻¹,98000 M⁻¹ s⁻¹
B2,0.46 nM,0.00028 s⁻¹,616000 M⁻¹ s⁻¹
B3,4 nM,0.00068 s⁻¹,170000 M⁻¹ s⁻¹
B4,2.2 nM,0.00071 s⁻¹,320000 M⁻¹ s⁻¹
B5,4.3 nM,0.00034 s⁻¹,79000 M⁻¹ s⁻¹
B6,1.95 nM,0.000308 s⁻¹,158000 M⁻¹ s⁻¹
B7,6.45 nM,0.00064 s⁻¹,99000 M⁻¹ s⁻¹
B8,0.37 nM,5.7e-05 s⁻¹,154000 M⁻¹ s⁻¹
B9,1.56 nM,0.000512 s⁻¹,329000 M⁻¹ s⁻¹
B10,1.51 nM,0.000229 s⁻¹,152000 M⁻¹ s⁻¹
B11,0.3 nM,5.7e-05 s⁻¹,228000 M⁻¹ s⁻¹
B12,0.5 nM,5.7e-05 s⁻¹,110000 M⁻¹ s⁻¹
B13,27.5 nM,0.0139 s⁻¹,508000 M⁻¹ s⁻¹
B14,0.88 nM,0.000487 s⁻¹,553000 M⁻¹ s⁻¹
B15,4.7 nM,0.00053 s⁻¹,110000 M⁻¹ s⁻¹
B16,0.5 nM,5.7e-05 s⁻¹,120000 M⁻¹ s⁻¹
B17,0.5 nM,5.7e-05 s⁻¹,114000 M⁻¹ s⁻¹

# Target: SARS-CoV-2 Receptor Binding Domain (RBD) protein (SARS-CoV-2)
# Test: SPR (Carterra LSA), scFv captured via anti-V5, RBD as analyte
row,Binder,Kd
1,B1,< 50 nM
2,B2,< 50 nM
3,B3,< 50 nM
4,B4,< 50 nM
5,B5,< 50 nM
6,B6,< 50 nM
7,B7,< 50 nM
8,B8,< 50 nM
9,B9,< 50 nM
10,B10,< 50 nM
11,B11,< 50 nM
12,B13,< 50 nM
13,B14,< 50 nM
14,B15,< 50 nM
15,B16,< 50 nM
16,B17,< 50 nM

# Target: SARS-CoV-2 Receptor Binding Domain (RBD) protein (SARS-CoV-2)
# Test: not given
row,Binder,Kd
1,B12,< 50 nM
